Data from the nanobody polyreactivity screen of Harvey et al. (2022).

Assay: yeast display, Sf9 membrane polyspecificity reagent, FACS + sequencing; frameworks hold sequencing errors
How it was run: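 Using colony PCR, genes from sorted yeast display clones were amplified, then sequenced on MiSeq at 2 × 250 and filtered by CDR length. The clones had been stained with 10% biotinylated, detergent-solubilized Sf9 membrane reagent for 1 hour at 4 °C and sorted by FACS into low and high (top ~1%) gates on anti-HA and streptavidin fluorescence. Polyreactivity labels come from the gate of origin.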

Row | Sequence | polyreactivity (PSR sort gate)
1 | QVQLVESGGGLVQAGGSLRLSCAASGSIFWGYDMGWYRQAPGKERELVARISYSGGSTSYADSVKGRFTISRDNAKNTVYLQMNSLKPEDTAVYYCAADEGGFWWTYPYDSWGQGTQVTVSS | low polyreactivity
2 | QVQLVESGGGLVQAGGSLRLSCAASGSIFWLYAMGWYRQAPGKEREFVAAITTSGSSTRYADSVKGRFTISRDNAKNTVYLQMNSLKPEDTAVYYCAARNRTFFQPTYYYWGQGTQVTVSS | high polyreactivity
3 | QVQLVESGGGLVQAGGSLRLSCAASGSIFWNYAMGWYRQAPGKEREFVASISRSGGSTYYADSVKGRFTISRDNAKNTVYLQMNSLKPEDTAVYYCAARGVKISYNYWGQGTQVTVSS | high polyreactivity
4 | QVQLVESGGGLVQAGGSLRLSCAASGSIFWPNAMGWYRQAPGKERELVAAISWGTGSTYYADSVKGRFTISRDNAKNTVYLQMNSLKPEDTAVYYCAADGAYLDPYYDYWGQGTQVTVSS | low polyreactivity
5 | QVQLVESGGGLVQAGGSLRLSCAASGSIFWPNTMGWYRQAPGKERELVAGISFGGGSTYYADSVKGRFTISRDNAKNTVYLQMNSLKPEDTEVYYCNAPGPVISRRTDSYWYGWYDYWGQGTQVTVSS | low polyreactivity
6 | QVQLVESGGGLVQAGGSLRLSCAASGSIFWPYAMGWYRQAPGKERELVAGISSGGSTYYADSVKGRFTISRDNAKNTVYLQMNSLKPEDTAVYYCAARWQWLNGYYYWGQGTQVTVSS | high polyreactivity
7 | QVQLVESGGGLVQAGGSLRLSCAASGSIFWQNAMGWYRQAPGKERELVARITSGGSTNYADSVKGRFTISRDNAKNTFYLQMNSLKPEDTGVYYCNRVRYRSYFAYYYWGQGTQVTVSS | high polyreactivity
8 | QVQLVESGGGLVQAGGSLRLSCAASGSIFWRYAMGWYRQAPGKERELVAAITWSGGTSYADSVKGRFTLSRDNAKNTVYLQMNSLKQEDTAVYYCIADGLSYYLYDYWGQGTQVTVSS | low polyreactivity
9 | QVQLVESGGGLVQAGGSLRLSCAASGSIFWSYAMGWYRQAPGKERELVAAITTDGGTNYADSVKGRFTISRDNAKNTVYLQMNSLKPEDTAVYYCAARYGTSYIVRWTYYAFDYWGQGTQVTVSS | low polyreactivity
10 | QVQLVESGGGLVQAGGSLRLSCAASGSIFWSYAMGWYRQAPGKERELVASITRSGGSTYYADSVKGRFTISRDNAKNTVYLQMNSLKPEDTAVYYCNARRTTRWGSSKYEYDYWGQGTQVTVSS | high polyreactivity
11 | QVQLVESGGGLVQAGGSLRLSCAASGSIFWVNAMGWYRQAPGKERELVAAITWSAGSTYYADSVKGRFTISRDNANNTVYLQMNSLKPEDTAVYYFAAGVAWYYWTLDYWGQGTQVTVSS | low polyreactivity
12 | QVQLVESGGGLVQAGGSLRLSCAASGSIFWVYAMGWYRQAPGKERELVAAISNSGSTNYADSVKGRFTISRDNAKNTVYLQMNSLKPEDTAVYYCAKDSLVDHVGGYDYWGQGTQVTVSS | low polyreactivity
13 | QVQLVESGGGLVQAGGSLRLSCAASGSIFWWNAKGWYRQAPGKERELVAAINWSTGRTYYADSVKGRFTISRDNAKNTVYLQMNSLKPEDTAVYYCNADSKSSYYWYLWYNYWGQGTQVTVSS | low polyreactivity
14 | QVQLVESGGGLVQAGGSLRLSCAASGSIFWYAMGWYRQAPGKETELVAAISRGGSTYYADSVKGRFTISRDNAKNTVFLEMYRLKPEDTAVYYCATAYRYPRNAYFQRMDSWGQGTQVTVSS | high polyreactivity
15 | QVQLVESGGGLVQAGGSLRLSCAASGSIFWYYAMGWYRQAPGKERELVASISRRGGSTYYADSVKGRFTISRDNAKNTVYLQMNSLKPEDTAVYYCAAYSRTTCSTVQGTYDYWGQGTQVTVSA | low polyreactivity
16 | QVQLVESGGGLVQAGGSLRLSCAASGSIFWYYAMGWYRQAPGKERELVASISSGGSTTYADSVKGRFTISCDNAKNTVYLQMISLKPEDTAVYYCNADYFGGGDYWGQGTQVTVSS | low polyreactivity

Row | Sequence | polyreactivity (PSR sort gate)
17 | QVQLVESGGGLVQAGGSLRLSCAASGSIFWYYAMGWYRQAPGKERELVASITSGGSTNYADSVKGRFTISRDNAKNTVYLQMISLKPEDTAVYYCNTDDDSSSTGYYSWGQGTQVTVSS | low polyreactivity
18 | QVQLVESGGGLVQAGGSLRLSCAASGSIFYANAMGWYRQAPRKERELVAAISWSGGRTYYADSVKGRFTISRDNAKNTVYLQMISLKPEDTAVYFCAAVTRGLRFVYWGQGTQVTVSS | high polyreactivity
19 | QVQLVESGGGLVQAGGSLRLSCAASGSIFYANAMGWYSQAPGKERELVAVISSGGGTYADSVKGRFTISRDNAKNTVYLQMNSLKPEDTAVYYCAADYTRESSMYYWGQGTQVTVSS | low polyreactivity
20 | QVQLVESGGGLVQAGGSLRLSCAASGSIFYDYTMGWYRQAPGKERELVAAITSDGSTYYADSVKGRFTISRDNAKNTVYLQMKSLKPEDTAVYYCAVFSDVFLYYYGETYDYWGQGTQVTVSS | high polyreactivity
21 | QVQLVESGGGLVQAGGSLRLSCAASGSIFYFNAMGWYRQAPGKEMELVATIRSGDGRTYYADSVKGRFTISRDNAKNTVYLQMNSLKPEDTAVYYCNASRVVYRQAYLYGYDYWGQGTQVTVSS | low polyreactivity
22 | QVQLVESGGGLVQAGGSLRLSCAASGSIFYFNAMGWYRQAPGKERELVAAINSGGSTYYADSVKGRFTISRDNAKNTVYLQMNSLKPEDTAVYYCAAVKVDYYITMYYWGQGTQVTVSS | high polyreactivity
23 | QVQLVESGGGLVQAGGSLRLSCAASGSIFYFNAMGWYRQAPGKERELVASITSGGSTNYADSVKGRFTISRDNAKNTVYLQMNSLKPEDTAVYYCNKRVHYIAGRGYDYWGQGNQVTVSS | low polyreactivity
24 | QVQLVESGGGLVQAGGSLRLSCAASGSIFYFNAMGWYRQAPGKERQLVAAITSGGNTYYADSVKGRFTISRDNAKNTVYLQMNSLKPEDTAVYYCAKRGFRFPYPSLDYWGQGTQVTVSS | low polyreactivity
25 | QVQLVESGGGLVQAGGSLRLSCAASGSIFYFYAMGWYRQAPGKERELVASIRWSCGRTRYADSVKGRFTISRDNAKNTVYLQMNSLKPEDTAVYYCAARGGGRPYDYWGQGTQVTVSS | high polyreactivity
26 | QVQLVESGGGLVQAGGSLRLSCAASGSIFYFYTMGWYRQAPGKERELVAAISGGGGSTYYADSVTGRFTISRDNAKNTVYLQMNSLKPEDTAVYYCAADGAGWLDYGYWGQGTQVTVSS | low polyreactivity
27 | QVQLVESGGGLVQAGGSLRLSCAASGSIFYGNAMGWYRQAPGKERELVAAISARGGSTNYADSVKGRFTISRDNAKNTVYLQMNSLKPEDTSVYYCAADTPVWSGYWYYYWGQGTQVTVSS | low polyreactivity
28 | QVQLVESGGGLVQAGGSLRLSCAASGSIFYGNAMGWYRQAPGKERELVAAISKRGGSTYYADSVKGRFTISRDKAKNSVYLQMNSLKPEDTAVYYCAKATAGHTEYYYWGQGTQVTVSS | high polyreactivity
29 | QVQLVESGGGLVQAGGSLRLSCAASGSIFYGNAMGWYRQAPGKERELVADITWSGGSTYYADSVKGRFTISRDNAKNTVYLQMNSLKPEDTAVYYCAAKVKHWYYPYYYWGQGTQVTVSS | low polyreactivity
30 | QVQLVESGGGLVQAGGSLRLSCAASGSIFYGNAMGWYRQAPGKERELVAGISWSGGSTYYADSVKGRFTISRDNAKNTVYFQMNSLKPEDTAVYYCATVADEPRAYSGYEESDYWGQGTQVTVSS | low polyreactivity
31 | QVQLVESGGGLVQAGGSLRLSCAASGSIFYGNAMGWYRQAPGKERELVAGISWSGGSTYYADSVKGRFTISRDNAKYTVYLQMNSLKPEDTAVYYCATVADEPRAYSGYEESDYWGQGTQVTVSS | low polyreactivity
32 | QVQLVESGGGLVQAGGSLRLSCAASGSIFYGNTMGWYRQEPGKERELVAPIRSVGRTYYADSVKGRYTISRDNAKNTVYLQMYSLKPEDTAVYYCAADPRSYFTSEYWGQGTQVTVSS | high polyreactivity
